According to patent US20220372160A1:

Target: recombinant mouse CD39 (mouse) (UniProt P55772)
Assay: BLI, Duha59 amine-coupled to AR2G biosensor, recombinant mouse CD39 as analyte, 1:1 model

Sequence of recombinant mouse CD39 (mouse) (P55772 38-478 limits assumed): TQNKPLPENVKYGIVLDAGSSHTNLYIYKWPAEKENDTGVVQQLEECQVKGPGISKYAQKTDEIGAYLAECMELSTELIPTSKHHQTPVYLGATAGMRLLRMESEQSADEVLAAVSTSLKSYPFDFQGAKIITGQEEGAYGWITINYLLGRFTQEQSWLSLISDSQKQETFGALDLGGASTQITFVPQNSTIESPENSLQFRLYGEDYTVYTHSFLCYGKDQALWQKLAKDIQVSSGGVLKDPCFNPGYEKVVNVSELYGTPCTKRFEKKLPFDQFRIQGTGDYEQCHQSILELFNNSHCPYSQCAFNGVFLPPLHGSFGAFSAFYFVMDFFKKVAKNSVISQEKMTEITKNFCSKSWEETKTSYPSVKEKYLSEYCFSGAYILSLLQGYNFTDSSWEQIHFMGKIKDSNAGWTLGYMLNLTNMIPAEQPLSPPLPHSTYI

rat anti-mouse CD39 Duha59 clone (antibody)
Kd: 1.09 nM
